Reference: paper PMC10643122

Experiments:
[1] = target: full-length LRRK1 (Leucine Rich Repeat Kinase 1) (human) (UniProt Q38SD2); assay: cryo-EM structure; 5.2 μM LRRK1(FL) with GDP, 0.06% brij-35 added directly before vitrification; C2 symmetry
[2] = target: full-length LRRK1 (Leucine Rich Repeat Kinase 1) (human) (UniProt Q38SD2); assay: mass photometry; full-length LRRK1 diluted to 100 nM in 20 mM HEPES pH 7.4, 150 mM NaCl, 2.5 mM MgCl2, 1 mM GDP, 0.5 mM TCEP, 0.5% glycerol; 30 min at room temperature; Refeyn TwoMP; Gaussian fits of the histograms, law of mass action; dimer to monomers; estimated Kd

stoichiometry N [1]: 2 | Kd [2]: 600 nM
Substance: full-length LRRK1 (Leucine Rich Repeat Kinase 1), Q38SD2-1 1-2015
